The values that follow come from patent US20020041865A1.

Experiment [1] deals with H520C9sFv-hIL-2 fusion protein (human) (UniProt P60568). Briefly: cell-based or functional assay.
Experiment [2] has as its target recombinant human IL-2 (human) (UniProt P60568). Briefly: cell-based or functional assay.
Experiment [3] deals with p185, the human HER-2/neu (c-erbB2) proto-oncogene product (human) (UniProt P04626). Briefly: Scatchard analysis on SK-Br-3 cells.

B1: mouse anti-human IL-2 mAb MAB202 (antibody, from another filing, V domains shown)
VH: DVRLVESGGGLVKPGGSLKLSCAAYGFTFSSYTLAWVRQTPEKRLEWVAAIDSSSYTYSPDTVRGRFTISRDNAKNTLYLQMSSLKSEDTAMYYCTRDSNWDALDYWGQGTSVIVSS
VL: DIVMTQSQKFMSTSVGDRVSVTCKASQNVGTNVGWYQQKPGQSPKALIYSASFRYSGVPDRFTGSGSGTDFSLTISNVKSEDLAEYFCQQYYTYPYTFGGGTKLEIK
For B1, the 50% inhibition of [^3H]-thymidine incorporation in CTLL-2 cells (Neutralization Dose 50) for the same dose of H520C9sFv-hIL-2 in experiment [1] amounted to 0.128 µg/mL. Besides, in experiment [2], the 50% inhibition of [^3H]-thymidine incorporation in CTLL-2 cells (Neutralization Dose 50) for 2 ng/ml rhIL-2 worked out at 0.076 µg/mL.

B2: murine monoclonal antibody 520C9 (antibody, from another filing, V domains shown)
VH: EIQLVQSGPELKKPGETVKISCKASGYTFANYGMNWMKQAPGKGLKWMGWINTYTGQSTYADDFKERFAFSLETSATTAHLQINNLRNEDSATYFCARRFGFAYWGQGTLVSVSA
VL: DIQMTQSPSSLSASLGERVSLTCRASQDIGNSLTWLQQEPDGTIKRLIYATSSLDSGVPKRFSGSRSGSDYSLTISSLESEDFVVYYCLQYAIFPYTFGGGTNLEIK
In experiment [3], B2 had a Ka of 3.5e+08 M⁻¹.

B3: proteolytically cleaved Fab fragment of 520C9 (Fab, from another filing, V domains shown)
VH: B2 VH
VL: B2 VL
With B3, the Ka in experiment [3] worked out at 6.7e+07 M⁻¹.
